Publication PMC5588873 (Cell reports, 2017)

Target: TNRC6A (human (endogenous in HeLa), UniProt Q8NDV7 1-1962)
Experiment: affinity purification with mass spectrometry

Chain of TNRC6A (Q8NDV7 whole entry): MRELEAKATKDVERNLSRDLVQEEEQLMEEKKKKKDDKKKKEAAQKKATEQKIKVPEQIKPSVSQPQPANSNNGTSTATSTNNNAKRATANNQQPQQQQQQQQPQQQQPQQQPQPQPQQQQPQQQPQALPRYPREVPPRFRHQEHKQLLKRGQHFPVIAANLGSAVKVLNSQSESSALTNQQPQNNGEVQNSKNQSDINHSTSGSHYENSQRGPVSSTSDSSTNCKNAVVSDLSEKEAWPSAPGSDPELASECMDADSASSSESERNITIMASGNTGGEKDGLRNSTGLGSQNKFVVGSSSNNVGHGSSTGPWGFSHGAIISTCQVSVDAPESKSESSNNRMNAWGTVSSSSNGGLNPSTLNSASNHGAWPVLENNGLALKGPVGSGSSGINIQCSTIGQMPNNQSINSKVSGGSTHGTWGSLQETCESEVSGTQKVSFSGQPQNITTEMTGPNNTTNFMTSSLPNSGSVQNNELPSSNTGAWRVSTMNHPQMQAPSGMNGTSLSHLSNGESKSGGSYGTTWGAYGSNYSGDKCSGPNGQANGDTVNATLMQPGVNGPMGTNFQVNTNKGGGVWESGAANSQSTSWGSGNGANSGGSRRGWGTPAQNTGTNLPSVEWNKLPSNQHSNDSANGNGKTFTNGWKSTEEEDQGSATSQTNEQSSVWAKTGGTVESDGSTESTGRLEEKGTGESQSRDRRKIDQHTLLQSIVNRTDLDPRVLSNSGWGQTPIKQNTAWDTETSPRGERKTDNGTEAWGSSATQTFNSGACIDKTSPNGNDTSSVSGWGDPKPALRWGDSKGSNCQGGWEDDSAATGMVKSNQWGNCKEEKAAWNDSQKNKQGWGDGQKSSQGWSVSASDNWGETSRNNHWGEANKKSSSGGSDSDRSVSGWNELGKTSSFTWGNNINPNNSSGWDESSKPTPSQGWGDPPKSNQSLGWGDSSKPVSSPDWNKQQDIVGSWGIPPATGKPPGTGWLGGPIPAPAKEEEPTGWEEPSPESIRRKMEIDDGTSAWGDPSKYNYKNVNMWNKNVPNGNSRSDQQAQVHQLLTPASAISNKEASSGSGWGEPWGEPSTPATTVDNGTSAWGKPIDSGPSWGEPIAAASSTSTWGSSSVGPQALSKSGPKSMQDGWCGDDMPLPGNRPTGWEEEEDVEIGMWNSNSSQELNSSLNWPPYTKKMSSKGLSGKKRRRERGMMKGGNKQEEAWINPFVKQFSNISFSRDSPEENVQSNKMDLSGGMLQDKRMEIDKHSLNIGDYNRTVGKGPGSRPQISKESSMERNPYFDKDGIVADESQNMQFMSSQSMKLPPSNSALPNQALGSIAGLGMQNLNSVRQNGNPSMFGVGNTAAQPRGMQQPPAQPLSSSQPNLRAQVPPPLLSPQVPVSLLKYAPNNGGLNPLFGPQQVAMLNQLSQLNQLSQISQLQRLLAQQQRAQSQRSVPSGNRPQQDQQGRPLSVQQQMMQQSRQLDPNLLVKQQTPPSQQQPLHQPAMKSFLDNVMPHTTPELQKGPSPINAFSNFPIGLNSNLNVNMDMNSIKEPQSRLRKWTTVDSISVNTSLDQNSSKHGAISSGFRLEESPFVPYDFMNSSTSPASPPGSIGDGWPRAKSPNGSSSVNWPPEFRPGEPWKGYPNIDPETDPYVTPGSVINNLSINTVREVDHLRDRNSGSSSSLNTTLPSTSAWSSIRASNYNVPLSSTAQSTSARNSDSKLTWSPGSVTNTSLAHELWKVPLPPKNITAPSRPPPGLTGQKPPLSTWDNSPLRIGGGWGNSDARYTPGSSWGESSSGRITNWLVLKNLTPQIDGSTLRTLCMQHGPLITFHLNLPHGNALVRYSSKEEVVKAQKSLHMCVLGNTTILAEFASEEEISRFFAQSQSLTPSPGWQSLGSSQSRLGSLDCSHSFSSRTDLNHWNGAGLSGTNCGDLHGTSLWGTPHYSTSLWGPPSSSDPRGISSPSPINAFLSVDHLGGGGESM

B1: TP53BP1 (natural protein, human (endogenous in HeLa), UniProt Q12888 1-1972, looked up)
chain: MDPTGSQLDSDFSQQDTPCLIIEDSQPESQVLEDDSGSHFSMLSRHLPNLQTHKENPVLDVVSNPEQTAGEERGDGNSGFNEHLKENKVADPVDSSNLDTCGSISQVIEQLPQPNRTSSVLGMSVESAPAVEEEKGEELEQKEKEKEEDTSGNTTHSLGAEDTASSQLGFGVLELSQSQDVEENTVPYEVDKEQLQSVTTNSGYTRLSDVDANTAIKHEEQSNEDIPIAEQSSKDIPVTAQPSKDVHVVKEQNPPPARSEDMPFSPKASVAAMEAKEQLSAQELMESGLQIQKSPEPEVLSTQEDLFDQSNKTVSSDGCSTPSREEGGCSLASTPATTLHLLQLSGQRSLVQDSLSTNSSDLVAPSPDAFRSTPFIVPSSPTEQEGRQDKPMDTSVLSEEGGEPFQKKLQSGEPVELENPPLLPESTVSPQASTPISQSTPVFPPGSLPIPSQPQFSHDIFIPSPSLEEQSNDGKKDGDMHSSSLTVECSKTSEIEPKNSPEDLGLSLTGDSCKLMLSTSEYSQSPKMESLSSHRIDEDGENTQIEDTEPMSPVLNSKFVPAENDSILMNPAQDGEVQLSQNDDKTKGDDTDTRDDISILATGCKGREETVAEDVCIDLTCDSGSQAVPSPATRSEALSSVLDQEEAMEIKEHHPEEGSSGSEVEEIPETPCESQGEELKEENMESVPLHLSLTETQSQGLCLQKEMPKKECSEAMEVETSVISIDSPQKLAILDQELEHKEQEAWEEATSEDSSVVIVDVKEPSPRVDVSCEPLEGVEKCSDSQSWEDIAPEIEPCAENRLDTKEEKSVEYEGDLKSGTAETEPVEQDSSQPSLPLVRADDPLRLDQELQQPQTQEKTSNSLTEDSKMANAKQLSSDAEAQKLGKPSAHASQSFCESSSETPFHFTLPKEGDIIPPLTGATPPLIGHLKLEPKRHSTPIGISNYPESTIATSDVMSESMVETHDPILGSGKGDSGAAPDVDDKLCLRMKLVSPETEASEESLQFNLEKPATGERKNGSTAVAESVASPQKTMSVLSCICEARQENEARSEDPPTTPIRGNLLHFPSSQGEEEKEKLEGDHTIRQSQQPMKPISPVKDPVSPASQKMVIQGPSSPQGEAMVTDVLEDQKEGRSTNKENPSKALIERPSQNNIGIQTMECSLRVPETVSAATQTIKNVCEQGTSTVDQNFGKQDATVQTERGSGEKPVSAPGDDTESLHSQGEEEFDMPQPPHGHVLHRHMRTIREVRTLVTRVITDVYYVDGTEVERKVTEETEEPIVECQECETEVSPSQTGGSSGDLGDISSFSSKASSLHRTSSGTSLSAMHSSGSSGKGAGPLRGKTSGTEPADFALPSSRGGPGKLSPRKGVSQTGTPVCEEDGDAGLGIRQGGKAPVTPRGRGRRGRPPSRTTGTRETAVPGPLGIEDISPNLSPDDKSFSRVVPRVPDSTRRTDVGAGALRRSDSPEIPFQAAAGPSDGLDASSPGNSFVGLRVVAKWSSNGYFYSGKITRDVGAGKYKLLFDDGYECDVLGKDILLCDPIPLDTEVTALSEDEYFSAGVVKGHRKESGELYYSIEKEGQRKWYKRMAVILSLEQGNRLREQYGLGPYEAVTPLTKAADISLDNLVEGKRKRRSNVSSPATPTASSSSSTTPTRKITESPRASMGVLSGKRKLITSEEERSPAKRGRKSATVKPGAVGAGEFVSPCESGDNTGEPSALEEQRGPLPLNKTLFLGYAFLLTMATTSDKLASRSKLPDGPTGSSEEEEEFLEIPPFNKQYTESQLRAGAGYILEDFNEAQCNTAYQCLLIADQHCRTRKYFLCLASGIPCVSHVWVHDSCHANQLQNYRNYLLPAGYSLEEQRILDWQPRENPFQNLKVLLVSDQQQNFLELWSEILMTGGAASVKQHHSSAHNKDIALGVFDVVVTDPSCPASVLKCAEALQLPVVSQEWVIQCLIVGERIGFKQHPKYKHDYVSH
- stoichiometry N: ~1.52 per TNRC6A (=1)

B2: AGO2 (natural protein)
chain: not shown
- stoichiometry N: 2.2 per TNRC6A (=1)
